Measured values from the Human Domainome abundance scans (Beltran et al. 2025).
± gives the uncertainty stated by the source.

B1: Chromodomain-helicase-DNA-binding protein 5, residues 411 to 463; numbered along this chain, Q8TDI0 (parent)
chain: EEDDHMEFCRVCKDGGELLCCDACPSSYHLHCLNPPLPEIPNGEWLCPRCTCP

Variants of: B1
Experiment: abundance fitness (aPCA) (normalised: wild type 0, dead -1); higher = more abundant; growth selection in yeast, the domain comes from the species named
Details: Homo sapiens

Variant | abundance fitness
D14H | -0.037 ± 0.11
D14Q | -0.2 ± 0.18
D14L | -0.153 ± 0.053
D14E | 0.059 ± 0.13
P38I | -0.564 ± 0.29
P38Y | 0.17 ± 0.19
P38L | 0.263 ± 0.15
P38H | -0.016 ± 0.27
W45Y | -0.299 ± 0.1
W45S | -0.459 ± 0.071
W45D | -0.761 ± 0.18
W45Q | -0.506 ± 0.061
W45C | -0.604 ± 0.1
W45R | -0.449 ± 0.043
C52L | 0.018 ± 0.049
C52R | -0.026 ± 0.045
C52A | 0.067 ± 0.054
C52I | -0.239 ± 0.099
C52Y | -0.295 ± 0.092
C52F | -0.141 ± 0.098
C52P | 0.11 ± 0.053
C52D | 0.262 ± 0.085
C9N | -0.735 ± 0.13
C9D | -0.595 ± 0.1

Variant | abundance fitness
C9Y | -0.977 ± 0.068
C9H | -1.5 ± 0.4
C9F | -0.715 ± 0.18
C50S | -0.702 ± 0.053
C50R | -0.686 ± 0.049
C50P | -0.517 ± 0.052
D4S | -0.081 ± 0.041
D4A | -0.186 ± 0.041
D4C | 0.203 ± 0.066
D4K | 0.184 ± 0.047
D4G | -0.425 ± 0.045
A23S | 0.301 ± 0.1
A23H | 0.088 ± 0.17
A23T | 0.08 ± 0.054
A23W | -0.043 ± 0.072
A23P | -0.488 ± 0.22
A23G | -0.014 ± 0.088
S27D | -0.3 ± 0.073
S27G | -0.168 ± 0.061
C21M | -1.08 ± 0.23
C21L | -0.999 ± 0.071
C21N | -1.03 ± 0.15
H31F | 0.516 ± 0.14
H31P | -0.406 ± 0.13

Variant | abundance fitness
H31I | -0.044 ± 0.13
H31V | -0.268 ± 0.084
H31E | 0.074 ± 0.093
H31Y | -0.455 ± 0.12
L37M | -0.262 ± 0.098
L37Q | -0.028 ± 0.1
L37S | 0.023 ± 0.074
L37N | -0.229 ± 0.18
C12Q | -0.938 ± 0.19
C12A | -0.963 ± 0.061
C12V | -0.828 ± 0.088
C12R | -0.783 ± 0.082
C12D | -0.574 ± 0.048
C12S | -0.947 ± 0.07
C12I | -0.601 ± 0.095
C12N | -0.852 ± 0.21
C12T | -0.581 ± 0.099
C47A | -0.542 ± 0.077
L30P | 0.087 ± 0.057
L30Q | 0.016 ± 0.063
L30A | 0.072 ± 0.061
L30E | -0.142 ± 0.078
L30F | -0.06 ± 0.044
E44F | -0.361 ± 0.085

Variant | abundance fitness
E44I | -0.156 ± 0.1
E44Y | -0.232 ± 0.081
E44K | 0.102 ± 0.071
E44H | 0.056 ± 0.073
V11S | -0.118 ± 0.058
V11N | -0.131 ± 0.15
V11P | -0.795 ± 0.12
P35S | -0.23 ± 0.06
P35Y | -0.476 ± 0.099
P35L | -0.315 ± 0.071
P35C | -0.371 ± 0.078
I40S | -0.058 ± 0.13
I40W | -0.633 ± 0.39
I40L | 0.147 ± 0.086
I40Q | 0.132 ± 0.12
I40H | -0.151 ± 0.24
I40T | 0.113 ± 0.13
I40R | -0.121 ± 0.097
H5M | -0.223 ± 0.043
H5T | -0.065 ± 0.038
G15W | -0.087 ± 0.09
G15C | -0.517 ± 0.12
G15V | -0.061 ± 0.092
G15L | -0.151 ± 0.064

Variant | abundance fitness
G15K | 0.191 ± 0.097
G15H | -0.159 ± 0.11
P25Q | -0.118 ± 0.089
P25V | 0.03 ± 0.076
P25H | 0.024 ± 0.09
P25G | 0.085 ± 0.067
P25Y | 0.023 ± 0.071
P25F | -0.094 ± 0.087
P25R | 0.087 ± 0.063
M6N | 0.135 ± 0.094
M6R | -0.045 ± 0.056
M6S | -0.233 ± 0.081
M6G | -0.09 ± 0.066
M6I | 0.012 ± 0.13
T51E | -0.027 ± 0.063
T51G | -0.052 ± 0.063
R49D | 0.101 ± 0.049
R49N | 0.013 ± 0.1
R49E | 0.148 ± 0.054
R49Q | 0.156 ± 0.069
R49T | 0.112 ± 0.069
R49C | 0.021 ± 0.057
R49M | 0.017 ± 0.067
R49A | -0.017 ± 0.056

Variant | abundance fitness
C32V | -0.963 ± 0.093
C32G | -0.985 ± 0.084
C32A | -0.768 ± 0.11
C32S | -1.05 ± 0.14
C32M | -0.736 ± 0.15
C32Q | -0.72 ± 0.047
C32R | -1 ± 0.083
C32N | -0.395 ± 0.13
E7L | -0.131 ± 0.065
E7S | -0.215 ± 0.084
E7V | 0.063 ± 0.064
E7G | -0.079 ± 0.052
E7N | -0.07 ± 0.12
E7K | -0.316 ± 0.094
E7H | -0.278 ± 0.11
E39D | -0.203 ± 0.14
E39C | -0.438 ± 0.37
E39R | -0.301 ± 0.088
E39T | -0.209 ± 0.14
E17M | -0.13 ± 0.059
E17G | -0.171 ± 0.068
E17Y | -0.272 ± 0.059
